Experimental data published in article PMC6156451 (Frontiers in Molecular Neuroscience, 2018).
Each block holds one substance with its values, some of them ahead of it. No end group written: not given here.

Legend:
[1] = target: ROS-GC1 peptide 1 peptide 1 (Bos taurus) (UniProt P55203); test: fluorescence
[2] = target: myristoylated guanylyl cyclase-activating protein 2 (GCAP-2), bovine (bovine) (UniProt P51177); test: SPR; GCAP-2 immobilised by amine coupling on 2D CMD sensor slides; peptides injected at 0.5-40 uM (peptide 3: 5-40 uM); 20 mM HEPES, 0.05% Tween, pH 7.5, 22°C, 30 ul/min; two-state model with equimolar binding; calcium not controlled, ~2 uM
[3] = target: myristoylated guanylyl cyclase-activating protein 2 (GCAP-2), bovine (bovine) (UniProt P51177); test: other fluorescence titration; GCAP-2 mixed with increasing concentrations of peptide in 20 mM HEPES pH 7.5, 20°C; excitation 280 nm, emission 350 nm; calcium not controlled, ~2 uM
GCAP-2 [4] = target: T1, GCAP-2 (Bos taurus, UniProt P51177); test: Surface plasmon resonance (SPR), GCAP-2/ROS-GC peptide interaction; type: binding, bovine
T1 construct: made in house; host or cells: E. coli BL21 (DE3), vector pET-11a, co-expressed with yeast N-myristoyltransferase I (pBB131)
T1 sequence (P51177 1-204): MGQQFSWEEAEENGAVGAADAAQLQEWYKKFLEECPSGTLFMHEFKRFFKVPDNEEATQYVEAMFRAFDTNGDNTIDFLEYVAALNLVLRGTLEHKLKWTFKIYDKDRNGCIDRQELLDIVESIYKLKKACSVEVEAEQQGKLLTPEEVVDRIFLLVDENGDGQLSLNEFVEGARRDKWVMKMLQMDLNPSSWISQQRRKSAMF

GCAP-2 [5] = target: T1, GCAP-2; test: Fluorescence spectroscopy titration of ROS-GC peptides to GCAP-2; set-up: species or system bovine; settings: excitation 280 nm, emission 350 nm, 20 mM HEPES pH 7.5, 20°C, calcium ~2 μM, read-out: KD1 (first binding event)
Method: Fluorescence measurements were carried out with a Jasco Spectrofluorometer FP-8200, equipped with a Jasco MCB-100 Mini Circulation Bath (20°C, xenon lamp, data interval 0.5 nm, accumulation number 3). The excitation wavelength was 280 nm, fluorescence emission was recorded at 350 nm to exclude self-fluorescence of non-bound peptide. […] As a negative control, separate recordings were performed with N-acetyl-L-tryptophanamide or N-acetyl-L-tyrosinamide, respectively.
A wavelength of 350 nm was chosen to rule out that changes in fluorescence originate from an increased concentration of non-bound peptide.

Chain of ROS-GC1 peptide 1 peptide 1 (Bos taurus) (P55203 57-1110): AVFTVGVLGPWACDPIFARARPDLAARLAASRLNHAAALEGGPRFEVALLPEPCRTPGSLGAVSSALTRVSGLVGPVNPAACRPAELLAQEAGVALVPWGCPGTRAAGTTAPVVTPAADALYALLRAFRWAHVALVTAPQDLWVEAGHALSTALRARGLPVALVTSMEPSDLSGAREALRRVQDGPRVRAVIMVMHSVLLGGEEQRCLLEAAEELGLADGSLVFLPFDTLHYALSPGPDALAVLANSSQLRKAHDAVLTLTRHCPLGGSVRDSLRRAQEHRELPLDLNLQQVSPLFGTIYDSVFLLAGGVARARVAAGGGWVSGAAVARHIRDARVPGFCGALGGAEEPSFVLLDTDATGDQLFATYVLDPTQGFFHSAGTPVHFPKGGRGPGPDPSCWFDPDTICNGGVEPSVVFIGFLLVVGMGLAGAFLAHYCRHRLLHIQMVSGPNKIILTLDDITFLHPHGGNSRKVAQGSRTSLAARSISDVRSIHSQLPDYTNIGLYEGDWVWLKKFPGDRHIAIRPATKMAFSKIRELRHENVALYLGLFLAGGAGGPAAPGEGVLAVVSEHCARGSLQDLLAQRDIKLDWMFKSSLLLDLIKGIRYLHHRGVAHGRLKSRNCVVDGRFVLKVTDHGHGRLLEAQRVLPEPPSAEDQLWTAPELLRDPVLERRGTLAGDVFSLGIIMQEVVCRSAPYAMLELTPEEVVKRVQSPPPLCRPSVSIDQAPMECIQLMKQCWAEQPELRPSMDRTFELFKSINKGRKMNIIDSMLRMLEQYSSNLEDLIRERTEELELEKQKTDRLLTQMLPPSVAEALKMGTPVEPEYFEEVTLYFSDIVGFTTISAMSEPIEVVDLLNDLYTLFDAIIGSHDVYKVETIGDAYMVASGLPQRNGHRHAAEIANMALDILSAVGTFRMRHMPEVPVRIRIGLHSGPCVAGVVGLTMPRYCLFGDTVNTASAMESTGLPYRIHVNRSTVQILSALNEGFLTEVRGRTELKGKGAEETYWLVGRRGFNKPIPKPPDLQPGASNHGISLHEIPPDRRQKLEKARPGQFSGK

- Kd [1]: 244 µM
Substance: GCAP-2 (from UniProt P51177)

- Kd [2]: 1.12 µM
- KD1 (first binding event) [3]: 4.2 µM
- KD2 (second binding event) [3]: 244 µM
Substance: ROS-GC1 peptide 1 (aa 965-981), postulated GCAP-2 binding motif

- Kd [2]: 3 µM
- KD1 (first binding event; set by extrapolation) [3]: 1 µM
Substance: ROS-GC1 peptide 2 (aa 942-981), N-terminal extension of peptide 1 with a part of the catalytic domain

- Kd (GCAP-2 [4]): 2.36 µM
- Kd (GCAP-2 [5]): 4.2 µM
Substance: YRIHVNRSTVQILSALN [Peptide 1]
